Assay: yeast display, Sf9 membrane polyspecificity reagent, FACS + sequencing; frameworks hold sequencing errors
Procedure, shortened: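 Synthetic nanobody libraries on Saccharomyces cerevisiae BJ5465 were galactose-induced for 36–48 hours, stained 1 hour at 4 °C with 10% biotinylated, detergent-solubilized Sf9 membrane reagent and enriched on streptavidin microbeads. FACS then separated cells into low and high (top ~1%) gates by anti-HA (expression) and streptavidin (reagent binding) fluorescence. Genes were colony-PCR amplified, MiSeq 2 × 250 sequenced and CDR-length filtered. A clone's polyreactivity label is that of its gate of origin.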

Q: For “QVQLVESGGGLVQAGGSLRLSCAASGNIFARYAMGWYRQAPGKEREMVARISESGGRTYYADSVKARFTISRDNAKNTVYLQMNSLKPEDTAVYYCADRRYIQYGFKFYYWGQGTQLTVSS”, which “polyreactivity (PSR sort gate)” value is on record?
A: high polyreactivity

Q: Which “polyreactivity (PSR sort gate)” value does the source give for “QVQLVESGGGLVQAGGSLRLSCAASGNIFDSYGMGWYRQAPGKERELVATINTSSGSTYYADSVKGRFTISRDNAKNTVYIQMNSLKPEDTAVYYCAAEWYPYTWGYGYWGQGTQVTVSS” here?
A: low polyreactivity

Q: For “QVQLVESGGGLVQAGGSLRLSCAASGNIFDYYAMGWYRQAPGKERELVAAISTGTSTYADSVKGRFTISRDNAKNTVYLQMNSLKPQDTAVYYCAADVGIRPLNYNPYNYWGQGTQVTVSS”, which “polyreactivity (PSR sort gate)” value is on record?
A: low polyreactivity

Q: With “QVQLVESGGGLVQAGGSLRLSCAASGNIFFGYAMGWYRQAPGKEREYVATITKIGGSTYYADSVKGRFTISRDNAKNTVYLQMNSLKPEDTAVYYCAARLGHSVNPGGERWDVEYWGQGTQVTVSS” as the sequence, how does the “polyreactivity (PSR sort gate)” value read?
A: low polyreactivity

Q: Which “polyreactivity (PSR sort gate)” value does the source give for “QVQLVESGGGLVQAGGSLRLSCAASGNIFFRYTMGWYRQAPGKERELVAASSASGGSTYYADSVKGRFTISRDNAKNTVYLQMNSLKPEDTAVYYCAARILHYTSEYYYWGQGTQVTVSA” here?
A: high polyreactivity

Q: With “QVQLVESGGGLVQAGGSLRLSCAASGNIFGAYAMGWYRQAPGKERELVATINWSGTRTYADSVKGRFTISRDNAKNTVYLQMNSLKPEDTAVYYCATKIAGRYRTRYYWGQGTQVTVSS” as the sequence, how does the “polyreactivity (PSR sort gate)” value read?
A: high polyreactivity

Q: For “QVQLVESGGGLVQAGGSLRLSCAASGNIFGHYTMGGYRQAPGKERELVAAISRTGGRTYYADSVKGRFTISRDNAKKTVYLQMNSLKPEDTAVYYCAADKGGTYFNGDSWGQGTQVTVSS”, which “polyreactivity (PSR sort gate)” value is on record?
A: high polyreactivity

Q: With “QVQLVESGGGLVQAGGSLRLSCAASGNIFIYNAMGWYREAPGKERELVAVISNSGSTYYADSVKGRFTISRDNAKNTVYLQMHSLKPEDSAVYYCNKDGGGDSYWYDYWGQGTHVTVSS” as the sequence, how does the “polyreactivity (PSR sort gate)” value read?
A: low polyreactivity

Q: With “QVQLVESGGGLVQAGGSLRLSCAASGNIFKHYAMGWYRQAPGKERELVAAITWSGGSTHYADSVKGRFTISRDNAKNTVYFQMNSLKPEDTAVSYCAARGWWPGTKWTRYDYWGQGTQVTVSS” as the sequence, how does the “polyreactivity (PSR sort gate)” value read?
A: high polyreactivity

Q: Which “polyreactivity (PSR sort gate)” value does the source give for “QVQLVESGGGLVQAGGSLRLSCAASGNIFLFYAMGWYRQAPGKERELVATLSWRGVGTYYADSVKGRFTISRDKAKNTGYIQMNSLKPEDTAVYYCAARGVWPEYDYWGQGTQVTVSS” here?
A: low polyreactivity

Q: For “QVQLVESGGGLVQAGGSLRLSCAASGNIFPDYAMGWYRQAPGKERELVAAISWSGGSTYYADSVKGRFTISRDNAKNTVYLQMNSLKPEETAVYYCAAGRRGRSYNRIRYDYWGQGTQVTVSS”, which “polyreactivity (PSR sort gate)” value is on record?
A: high polyreactivity

Q: With “QVQLVESGGGLVQAGGSLRLSCAASGNIFPYYAMGWYRQAPGKERELVASITWSGGRTYYADSVKGRFTISRDNAKNTVYLQMNSLKPEDTAVYYCAKEHHRTGQGRDYDYWGQGTQVTVSS” as the sequence, how does the “polyreactivity (PSR sort gate)” value read?
A: low polyreactivity

Q: Which “polyreactivity (PSR sort gate)” value does the source give for “QVQLVESGGGLVQAGGSLRLSCAASGNIFQRYAMGWYRQAPGKERELVAAISGNGGNTFYADSVKGRFTISRDNAKNSVYLQMNSLKPEDTAVYYCNTVYVVYGYDYWGQGTQVTVSS” here?
A: high polyreactivity

Q: Which “polyreactivity (PSR sort gate)” value does the source give for “QVQLVESGGGLVQAGGSLRLSCAASGNIFQRYAMGWYRQAPGKERELVAAISYSGARTYYADSVKGRFTISRDNAKNTVYLQMNSLKPEDTAVYYCATYGGLTKFRLAYDYWGQGTQVTVSS” here?
A: high polyreactivity

Q: With “QVQLVESGGGLVQAGGSLRLSCAASGNIFRINGMGWYRQAPGKERELVAAISFSGGSTYYADSVKGRFTISRDNAKNTVYLQMNSLKPEDTAVYYCNADSTKGWYHDYDYWGQGTQVTVSS” as the sequence, how does the “polyreactivity (PSR sort gate)” value read?
A: low polyreactivity

Q: Which “polyreactivity (PSR sort gate)” value does the source give for “QVQLVESGGGLVQAGGSLRLSCAASGNIFRRYAMGWYRQAPGKDRELVAAISISGGNTYYADSVKGRFTISRDNAKNTVYLQMNSLKREDTAVYYCNARLRWYPGYDYWGQGTQVTVSS” here?
A: high polyreactivity

Q: Which “polyreactivity (PSR sort gate)” value does the source give for “QVQLVESGGGLVQAGGSLRLSCAASGNIFRRYAMGWYRQAPGKERELVAAITWSGGSTYYADSVKGRFTISRDNAKNTVYLQMNSLKPEDTAVYYCAARRFWHYGYPGAYIGFGYWGQGTQVTVSS” here?
A: high polyreactivity

Q: With “QVQLVESGGGLVQAGGSLRLSCAASGNIFRSYAMGWYRQAPGKERELVAAISSRGGSTYYADSVKGRFTISRDNAKNTVYLQMNSLKPEDTAVYYCNAPSTQQGPKYDYWGQGTQVTVSS” as the sequence, how does the “polyreactivity (PSR sort gate)” value read?
A: low polyreactivity

Q: With “QVQLVESGGGLVQAGGSLRLSCAASGNIFRSYMGWYRQAPGKERELVASISRRGGSTYYADSVKGRFTISRDNAKNTVYLQMNSLKPEDTAVYYCARRWSWVNGVFGYYWGQGTQVTVSS” as the sequence, how does the “polyreactivity (PSR sort gate)” value read?
A: high polyreactivity

Q: With “QVQLVESGGGLVQAGGSLRLSCAASGNIFSANAMVWDRQAPGKEREFVAAISSTGGSTYYADSVKGRFTISRDNAKNTVYLQMNSLIPEDTAVYYCAAYIRRYLHYDYWGQGSQVTVSS” as the sequence, how does the “polyreactivity (PSR sort gate)” value read?
A: high polyreactivity

Q: With “QVQLVESGGGLVQAGGSLRLSCAASGNIFSAYAMGWYRQAPGTERELVATITSGGITYYADSVKGRFTISRDNAKNSVYLQKNSLKPEDTAVYYCNADHHGQAEYGYWGHGTQVTVSS” as the sequence, how does the “polyreactivity (PSR sort gate)” value read?
A: low polyreactivity

Q: With “QVQLVESGGGLVQAGGSLRLSCAASGNIFSAYTMGWYRQAPGKERELVAAITGGTSTHYADSVKGRFTISRDNAKNTVYLQMNSLKPEDTAVYYCAADQGRYGIIGWDDYWGQGTQVTVSS” as the sequence, how does the “polyreactivity (PSR sort gate)” value read?
A: low polyreactivity

Q: For “QVQLVESGGGLVQAGGSLRLSCAASGNIFSDYTMGWYRQAPGEERELVAAISGEGGTTYNADSVKGRFTISRDNAKNTVYLQMNRLKPEDPAVYYCAADGYYHAYDQFFIVYYEYDYWGQGTQVTVSS”, which “polyreactivity (PSR sort gate)” value is on record?
A: low polyreactivity

Q: Which “polyreactivity (PSR sort gate)” value does the source give for “QVQLVESGGGLVQAGGSLRLSCAASGNIFSGNAMGWYRQAPGKERELVAAISWSGGSTYYADSVKGRFTISRDNAKNTVYLQMNSLKPEDTAVYYCNKDLYADGQYNYDYWGQGTQVTVSS” here?
A: low polyreactivity

Q: Which “polyreactivity (PSR sort gate)” value does the source give for “QVQLVESGGGLVQAGGSLRLSCAASGNIFSIYAMGWYRQAPGKERELVARITRVGSTYADSVKGRFTISRDNAKNTVYLQMNSLNPEDTAVYYCAADKNTPHASLDDFNDYDYWGQGTQVTVSS” here?
A: high polyreactivity

Q: With “QVQLVESGGGLVQAGGSLRLSCAASGNIFSKYAMGWYRQAPGKERELVAAISRSGGRTYYADSVKGRFTISRDNAKNTVYLQMNSLNPEDTAFYYCNKAQRHYPYDYWGQGTQVTVSS” as the sequence, how does the “polyreactivity (PSR sort gate)” value read?
A: high polyreactivity

Q: Which “polyreactivity (PSR sort gate)” value does the source give for “QVQLVESGGGLVQAGGSLRLSCAASGNIFSYYAIGSYRHAPRKEREFVAANDWNGGTTYYADSVKGRFTISRDNAKNTVYLQMNSLKPEDTAVYYCAAEYGTWYIPEGEYWGQGTQVTVSS” here?
A: high polyreactivity

Q: Which “polyreactivity (PSR sort gate)” value does the source give for “QVQLVESGGGLVQAGGSLRLSCAASGNIFTIYAMGWYRQAPGKERELVAAIDSDGTTYYADSVKGRFTISRYNAKNTVYLQMNSLKPEDTAVYYCAAGGRSVRYNYWGQGTQVTVSS” here?
A: high polyreactivity

Q: With “QVQLVESGGGLVQAGGSLRLSCAASGNIFTKYAMGWYRPAPGKERELVAAITWSGGSTYYADSVKGRFTISRDNAKNTVYLRMNSLKPEDTAVYYCATAHGFRRDKPYDYWGQGTQVTVSS” as the sequence, how does the “polyreactivity (PSR sort gate)” value read?
A: high polyreactivity

Q: For “QVQLVESGGGLVQAGGSLRLSCAASGNIFTYYAMGWYRQAPGKERELVAAIRWRSGSTYYADSVKGRFTISRDNAKNTVYLQMNSLKPEDTAVYYCAADGTPYEYDYWGHGTQVTVSS”, which “polyreactivity (PSR sort gate)” value is on record?
A: low polyreactivity

Q: Which “polyreactivity (PSR sort gate)” value does the source give for “QVQLVESGGGLVQAGGSLRLSCAASGNIFTYYVMGWYRQAPGKQRELVAAISRRGGSTYYADSVKGRFIISRDNAKHTVYLQMNSLKPEDTAVYYCAKKYPRDMDYWGQGTQVTVSS” here?
A: high polyreactivity

Q: For “QVQLVESGGGLVQAGGSLRLSCAASGNIFVGNDMGWYRQAPGKERELVAAISSGDTTSYADSVKGRFTISRDNAKNTVYLQMNSLKPEDTAVYYCNTDAPYLLWFTNRYDYWGQGTQVTVSS”, which “polyreactivity (PSR sort gate)” value is on record?
A: low polyreactivity

Q: For “QVQLVESGGGLVQAGGSLRLSCAASGNIFVPNAMGWYRQAPGKERELVAAIRRGGSTNYADSVKGRFTISRDNAKNTVYLQMNSLKPEDTAVYYCAAYYTYLYHYGTFKIYNYWGQGTQVTVSS”, which “polyreactivity (PSR sort gate)” value is on record?
A: low polyreactivity

Q: Which “polyreactivity (PSR sort gate)” value does the source give for “QVQLVESGGGLVQAGGSLRLSCAASGNIFWLNAMGWYRQAPGKEREFVADITWSTGSTYYADSVKGRFTISRDNAKNTVYLQMNSLKPEDTAVYYCAADDGYFNYLILRFKYLYDYWGQGTQVTVSS” here?
A: low polyreactivity

Q: Which “polyreactivity (PSR sort gate)” value does the source give for “QVQLVESGGGLVQAGGSLRLSCAASGNIFWWNAMGWYREATRKERELVAAITSDSTTYYADSVKGRFTISRDNAKNTVYLQMKSLKPEDTAVYYCAAYSYGGQGVDYGYWGQGTQVTVSS” here?
A: low polyreactivity

Q: Which “polyreactivity (PSR sort gate)” value does the source give for “QVQLVESGGGLVQAGGSLRLSCAASGNIFYANDMGWYIQAPGKERELVAAITGSGGSTYYADSVKGRFTISRDNAKNTVYLQMDSLKPEDTAVYYCATPYDIQWASESHDSWGQGTQVTVSS” here?
A: low polyreactivity

Q: For “QVQLVESGGGLVQAGGSLRLSCAASGNIFYAYDMGWYRQAPGKERELVAAITNGDSTDYADSVKGRFTISRDNAKNTVYLQMNSLKPEDTAVYYCATDIHSVHNNRDKHDYDYWGQGTQVTVSS”, which “polyreactivity (PSR sort gate)” value is on record?
A: low polyreactivity

Q: Which “polyreactivity (PSR sort gate)” value does the source give for “QVQLVESGGGLVQAGGSLRLSCAASGNIFYINTMGWYRQEPGKERELVDAIDASDGSTYYADSVKGRFTISRDNAKNTVYLQMNSLKPEDTAVYYFASRRGYDSVYYFYTLWYYYWGQGTQVTVSS” here?
A: low polyreactivity

Q: Which “polyreactivity (PSR sort gate)” value does the source give for “QVQLVESGGGLVQAGGSLRLSCAASGNIFYLYAMGCYRQAPGKEREFSTSYADSVKGRFTISRDNAKNTVYLQMNSLKPEDTAVYYCAAYKSRGPYYYLFDYWGQGTQVTVSS” here?
A: low polyreactivity

Q: Which “polyreactivity (PSR sort gate)” value does the source give for “QVQLVESGGGLVQAGGSLRLSCAASGNIFYRNGMGWYRQAPGKEREFVAAISRRGGSTYYADSVKGRFTISRDNAKNTVYLQMNSLKPEDTAVYYCATRYWPTNKGEYWGQGTQVTVSS” here?
A: high polyreactivity

Q: With “QVQLVESGGGLVQAGGSLRLSCAASGNIFYSYAMGWYRQAPGKERELVAAISSSGGRTYYADSVKGRFTISRDNAKNTVYLQMNSLKPEDTAVYYCNAYVQVLRYVFGRPTVYPYDYWGQGTQVTVSS” as the sequence, how does the “polyreactivity (PSR sort gate)” value read?
A: high polyreactivity

Q: Which “polyreactivity (PSR sort gate)” value does the source give for “QVQLVESGGGLVQAGGSLRLSCAASGNIFYTNAMGWYRQAPGKERELVAAISRSGGRTYYADSVKGRFTISRDNAKNTVYLQMNSLKPEDTAVYYCAKQLYSPYKQRGYRLSPYEYWGQGTQVTVSS” here?
A: low polyreactivity

Q: For “QVQLVESGGGLVQAGGSLRLSCAASGNIFYVYLMGWYRQAPGKERELVASITSGASTYYADSVKGRFTISRDNAKNTVYLQMNSLKPEDTAVYYCAAEALGVAGDYSTLYIYDYWGQGTQVTVSS”, which “polyreactivity (PSR sort gate)” value is on record?
A: low polyreactivity
